Paper PMC10043283, “Neuraminidase 1 promotes renal fibrosis development in male mice” (Nature Communications, 2023)

Target: T1, Human NEU1 recombinant protein (human, UniProt Q99519 48-415)
T1 construct: human neuraminidase 1 (NEU1), recombinant; Amine-coupled to a CM5 chip; also called recombinant human NEU1; source: recombinant protein, gifted by Dr. Xiao Yibei lab
Experiment: SPR; Biacore T200, 25 °C, HBS-EP+ pH 7.4; human NEU1 amine-coupled to CM5 chip (8000–10,000 RU); ALK5 recombinant proteins flowed at 7.80–500 nM; 1:1 binding model
Settings: both partners purified

- Kd: 3.14 nM
B1: human ALK5_(162-403aa) recombinant protein (domain or fragment, UniProt P36897 162-403, looked up)
chain: EDPSLDRPFISEGTTLKDLIYDMTTSGSGSGLPLLVQRTIARTIVLQESIGKGRFGEVWRGKWRGEEVAVKIFSSREERSWFREAEIYQTVMLRHENILGFIAADNKDNGTWTQLWLVSDYHEHGSLFDYLNRYTVTVEGMIKLALSTASGLAHLHMEIVGTQGKPAIAHRDLKSKNILVKKNGTCCIADLGLAVRHDSATDTIDIAPNHRVGTKRYMAPEVLDDSINMKHFESFKRADIYA
notes: human ALK5 (TGFβ type I receptor), amino acids 162-403; also called amino acid 162–403 region of ALK5; source: bought: Sino Biological Inc
